Results taken from US20170340735A1 (published 2017).
Substitutions are numbered along the chain they refer to.

T1: human TIGIT on the cell surface (human, UniProt Q495A1 22-244)
T1 construct: Expressed on engineered Jurkat cells or naturally on human primary CD8+ T cells (the cells are named under assay); also called Human TIGIT Jurkat; human TIGIT expressing Jurkat cells
T1 sequence: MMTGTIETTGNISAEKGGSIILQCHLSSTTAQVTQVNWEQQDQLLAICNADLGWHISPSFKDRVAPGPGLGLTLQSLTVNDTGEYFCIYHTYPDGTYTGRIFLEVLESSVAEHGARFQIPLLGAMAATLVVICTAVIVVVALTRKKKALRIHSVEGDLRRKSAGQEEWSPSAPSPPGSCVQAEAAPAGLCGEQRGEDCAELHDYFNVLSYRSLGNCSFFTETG

T2: recombinant monomeric human TIGIT-His (human, UniProt Q495A1 22-141)
T2 construct: also called hTIGIT; not shown: His tag
T2 sequence: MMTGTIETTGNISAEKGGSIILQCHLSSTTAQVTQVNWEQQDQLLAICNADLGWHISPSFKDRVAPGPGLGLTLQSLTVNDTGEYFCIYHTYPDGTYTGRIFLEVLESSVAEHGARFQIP

T3: human PVRL4-His (human, UniProt Q96NY8 32-349)
T3 construct: also called Nectin-4; not shown: His tag
T3 sequence (looked up): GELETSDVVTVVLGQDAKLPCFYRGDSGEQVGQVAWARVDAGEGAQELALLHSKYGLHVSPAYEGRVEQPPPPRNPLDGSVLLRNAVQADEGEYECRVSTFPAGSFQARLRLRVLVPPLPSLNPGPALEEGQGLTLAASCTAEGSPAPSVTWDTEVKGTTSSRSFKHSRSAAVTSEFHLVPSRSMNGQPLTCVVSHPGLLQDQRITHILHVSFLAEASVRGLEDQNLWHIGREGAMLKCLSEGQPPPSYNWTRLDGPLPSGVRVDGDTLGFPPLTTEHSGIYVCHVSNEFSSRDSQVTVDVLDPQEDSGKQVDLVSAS

B1: MAB1-IgG4 (antibody, V domains shown)
VH: QLQLQESGPGLVKPSETLSLTCTVSGGSITSSSYYWGWIRQPPGKGLEWIGSIYYSGATFYNPSLKSRVTISVDTSKNQFSLKLSSVTAADTAVYYCARDANYYGSAWAFDPWGQGTLVTVSS
VL: EIVLTQSPATLSLSPGERATLSCRASQSVSSYLAWYQQKPGQAPRLLIYDASNRATGIPARFSGSGSGTDFTLTISSLEPEDFAVYYCQQHFNLPTFGGGTKVEIKR
B2: MAB5-IgG4 (antibody, V domains shown)
VH: B1 VH with T30S, S32T, Y34H, A58S, S67G
VL: B1 VL
B3: MAB2-IgG4 (antibody, V domains shown)
VH: B1 VH with T30S, S33K, A58S
VL: B1 VL
B4: MAB4-IgG4 (antibody, V domains shown)
VH: B1 VH with T30S, S32T, Y34H, A58S, S106G
VL: B1 VL

What was measured:
[1] = target: T1, human TIGIT on the cell surface; assay: flow cytometry, antibody titrated against labeled PVRL2-Fc binding to human TIGIT Jurkat cells
Experimental: (§1) Quantitative ligand blocking studies were conducted by using a cell surface TIGIT binding assay.

[2] = target: T4, recombinant monomeric cynomolgus monkey TIGIT-His (cynomolgus monkey); assay: MSD-SET solution equilibrium titration, monomeric antigen
T4 construct: also called Cyno TIGIT His; cTIGIT; not shown: His tag
Experimental: (§2) See Estep et al., supra, incorporated by reference in its entirety. Briefly, solution equilibrium titrations (SET) were performed in PBS+0.1% IgG-Free BSA (PBSF) with antigen (TIGIT monomer) held constant at 10-100 pM and incubated with 3- to 5-fold serial dilutions of Fab or mAbs starting at 10 pM-10 nM. Antibodies (20 nM in PBS) were coated onto standard bind MSD-ECL plates overnight at 4° C. or at room temperature for 30 min. Plates were then blocked by BSA for 30 min with shaking at 700 rpm, followed by three washes with wash buffer (PBSF+0.05% Tween 20). SET samples were applied and incubated on the plates for 150s with shaking at 700 rpm followed by one wash. Antigen captured on a plate was detected with 250 ng/mL sulfotag-labeled streptavidin in PBSF by incubation on the plate for 3 min. The plates were washed three times with wash buffer and then read on the MSD Sector Imager 2400 instrument using 1× Read Buffer T with surfactant. The percent free antigen was plotted as a function of titrated antibody in Prism and fit to a quadratic equation to extract the KD. To improve throughput, liquid handling robots were used throughout MSD-SET experiments, including SET sample preparation.

[3] = target: T2, recombinant monomeric human TIGIT-His; assay: as above
Experimental: as §2

[4] = target: T1, human TIGIT on the cell surface; assay: flow cytometry, antibody titrated against labeled PVR-Fc binding to human TIGIT Jurkat cells
Experimental: as §1

[5] = target: T1, human TIGIT on the cell surface; assay: cell-based or functional assay
human PVRL4-His = target: T3, human PVRL4-His; assay: BLI, antibody on AHC sensor, human PVRL4-His in solution
Experimental: The BLI analysis was performed at 30° C. using 1× kinetics buffer as assay buffer. AHC sensors were first presoaked in assay buffer for greater than 5 minutes. Antibody (5 μg/mL) was captured on the sensor for 300 seconds. Sensors were then dipped in assay buffer for 120 seconds to establish a baseline before measuring binding to human PVRL4-His protein. Sensors were then dipped into human PVRL4-His (200 nM in assay buffer) for 200 seconds to measure association. Dissociation of PVRL4 was then measured by dipping sensors into assay buffer for 200 seconds. Results were analyzed using Octet® Data Analysis Software Version 8.2.0.7.

[6] = target: T4, recombinant monomeric cynomolgus monkey …; assay: BLI (ForteBio), IgG on AHQ sensor, 100 nM monomeric antigen, 1:1 model
Experimental: (§3) Quantitative binding of antibodies to recombinant monomeric human, mouse (SEQ ID NO: 3), cynomolgus monkey TIGIT was measured using biolayer interferometry (BLI) with a FORTEBIO®. […] FORTEBIO affinity measurements were performed by loading IgGs on-line onto AHQ sensors. Sensors were equilibrated off-line in assay buffer for 30 min and then monitored on-line for 60 seconds for baseline establishment. Sensors with loaded IgGs were exposed to a single concentration of antigen (100 nM) for 3 minutes. Afterwards they were transferred to assay buffer for 3 minutes for off-rate measurement. Kinetics were analyzed using the 1:1 binding model.

[7] = target: T2, recombinant monomeric human TIGIT-His; assay: as above
Experimental: as §3

[8] = target: T2, recombinant monomeric human TIGIT-His; assay: BLI (Octet QKe), antibody on AHC sensor, several concentrations of human TIGIT-His, 1:1 global fit, average
Experimental: A strategy of capturing anti-TIGIT antibodies on sensors following association/dissociation of monomeric TIGIT proteins was used to avoid avidity effects in the assay. The BLI analysis was performed at 29° C. using 1× kinetics buffer (ForteBio) as assay buffer. Anti-human IgG Fc capture (AHC) biosensors (ForteBio) were first presoaked in assay buffer for over five minutes. Anti-TIGIT antibody (5 μg/mL) was captured on the sensor for 300 seconds. Sensors were then dipped in assay buffer for 120 seconds to establish a baseline before measuring binding to each TIGIT protein. […] Dissociation of TIGIT was measured by dipping the sensors into assay buffer for 600, 1200, or 1800 seconds, depending on the experiment (600 seconds was only used for mouse TIGIT-His). Agitation at all steps was 1000 rpm.
Kinetic parameters were generated with Octet® Data Analysis Software Version 8.2.0.7 using reference subtraction, dissociation based inter-step correction, 1-to-1 binding model, and global fit (Rₘₐₓ unlinked by sensor).

T4 sequence (chain, as listed by the source limits assumed): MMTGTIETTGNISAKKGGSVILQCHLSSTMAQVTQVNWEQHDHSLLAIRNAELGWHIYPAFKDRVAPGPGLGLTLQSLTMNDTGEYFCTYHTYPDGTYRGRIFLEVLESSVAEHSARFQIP

| Binder | IC50 [1] | Kd [2] | Kd [3] | IC50 [4] | Average EC50, IL-2 production, human TIGIT Jurkat/anti-CD3 HT-1080 co-culture assay [5] | binding result (human PVRL4-His) | Kd [6] | Kd [7] | Kd [8] | koff [8] | kon [8] |
| --- | --- | --- | --- | --- | --- | --- | --- | --- | --- | --- | --- |
| B1 | 1400 pM | 320 pM | 54 pM | 2200 pM | 220 pM | no binding (tested: 200 nM) | 2640 pM | 524 pM | – | – | – |
| B2 | 1400 pM | 46 pM | 4.9 pM | 1700 pM | 340 pM | no binding (tested: 200 nM) | 898 pM | 196 pM | 190 pM | 0.00014 s⁻¹ | 770000 M⁻¹ s⁻¹ |
| B3 | 1300 pM | 230 pM | 25 pM | 2300 pM | 310 pM | no binding (tested: 200 nM) | 1570 pM | 457 pM | 710 pM | 0.00023 s⁻¹ | 320000 M⁻¹ s⁻¹ |
| B4 | 1600 pM | 15 pM | 5 pM | 1900 pM | 340 pM | no binding (tested: 200 nM) | 369 pM | 246 pM | 81 pM | 6.3e-05 s⁻¹ | 700000 M⁻¹ s⁻¹ |
